Measurements taken from paper PMC9258321 (2022).
Where two headings read alike, the source gives them in different places. Ends that are not written are not given here.

Experiments:
Kelch domain of Keap1 [1] = assay: SPR
Kelch domain of Keap1 [2] = assay: SPR; remark: listed apart in the source

Kelch domain of Keap1, sequence (chain, as listed by the source): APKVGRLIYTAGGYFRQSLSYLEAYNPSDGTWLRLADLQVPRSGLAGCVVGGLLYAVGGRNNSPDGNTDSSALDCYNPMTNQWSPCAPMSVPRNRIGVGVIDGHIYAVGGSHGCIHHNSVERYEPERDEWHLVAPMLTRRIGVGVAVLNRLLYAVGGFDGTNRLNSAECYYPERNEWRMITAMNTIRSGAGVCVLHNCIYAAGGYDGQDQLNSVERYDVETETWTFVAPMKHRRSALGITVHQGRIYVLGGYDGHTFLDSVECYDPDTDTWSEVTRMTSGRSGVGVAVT

B1: drp3, minor oxidized product (peptide)
chain: GCPPCASGCSPETGEFCWREDDCPPC
modifications: disulfide (positions not given here); also: oxidized (disulfides), pairing of this isomer not given here
Kd (Kelch domain of Keap1 [1]): 415 nM

GCPPCASGCSPETGEFCWREDDCPPC (disulfide (positions not given here); not fully specified) [drp3-a]
Kd (Kelch domain of Keap1 [2]): 277 nM
